Experimental data: doi:10.1101/2020.03.02.972281 (bioRxiv, 2020)
One block for each molecule: values may come before it.

Key:
transferrin [1] = target: T1, transferrin (human, UniProt P02787 20-698); test: SPR
transferrin [2] = target: T1, transferrin; test: native gel or EMSA

T1 sequence (P02787 20-698): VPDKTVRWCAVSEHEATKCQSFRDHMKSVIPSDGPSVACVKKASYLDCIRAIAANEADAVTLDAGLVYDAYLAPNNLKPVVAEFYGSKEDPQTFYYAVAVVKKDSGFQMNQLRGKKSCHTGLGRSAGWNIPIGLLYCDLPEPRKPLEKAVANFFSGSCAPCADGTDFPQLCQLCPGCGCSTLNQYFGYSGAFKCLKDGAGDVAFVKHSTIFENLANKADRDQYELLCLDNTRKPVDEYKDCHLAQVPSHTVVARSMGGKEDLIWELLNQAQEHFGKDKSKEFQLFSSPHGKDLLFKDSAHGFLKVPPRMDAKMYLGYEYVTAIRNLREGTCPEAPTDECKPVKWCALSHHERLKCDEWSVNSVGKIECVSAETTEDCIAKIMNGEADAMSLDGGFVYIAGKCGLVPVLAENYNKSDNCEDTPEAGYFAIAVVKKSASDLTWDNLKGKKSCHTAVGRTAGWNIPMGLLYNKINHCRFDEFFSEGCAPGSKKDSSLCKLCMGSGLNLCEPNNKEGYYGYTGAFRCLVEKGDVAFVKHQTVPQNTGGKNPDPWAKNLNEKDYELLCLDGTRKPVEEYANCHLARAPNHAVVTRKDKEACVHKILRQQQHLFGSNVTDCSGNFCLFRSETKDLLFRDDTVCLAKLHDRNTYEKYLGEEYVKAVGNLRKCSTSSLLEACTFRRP

Kd (transferrin [1]): 14 nM | koff (transferrin [1]): 0.00033 s⁻¹ | kon (transferrin [1]): 24000 M⁻¹ s⁻¹
Molecule: CD14 (SEA518Mu-48T, Uscn) (from UniProt P08571 20-345) (natural protein)

binding result (transferrin [2]): binds
B1: human CD14 (natural protein, UniProt P08571 20-345, looked up)
chain: TTPEPCELDDEDFRCVCNFSEPQPDWSEAFQCVSAVEVEIHAGGLNLEPFLKRVDADADPRQYADTVKALRVRRLTVGAAQVPAQLLVGALRVLAYSRLKELTLEDLKITGTMPPLPLEATGLALSSLRLRNVSWATGRSWLAELQQWLKPGLKVLSIAQAHSPAFSCEQVRAFPALTSLDLSDNPGLGERGLMAALCPHKFPAIQNLALRNTGMETPTGVCAALAAAGVQPHSLDLSHNSLRATVNPSAPRCMWSSALNSLNLSFAGLEQVPKGLPAKLRVLDLSCNRLNRAPQPDELPEVDNLTLDGNPFLVPGTALPHEGSMN

binding result (transferrin [1]): binds
Molecule: ELDDEDFRCVCNFSEPQPDWSEAFQCVSAVEVEIHAGGLN [LPS binding region of CD14 N-terminus (CD14N)]
